The results in this text go back to patent US6183121.

Data set [1] concerns the target HCV NS3 full-length (wild type) (Hepatitis C virus) (UniProt P26664).
Data set [2] concerns the target HCV NS3 helicase domain (wild type) (Hepatitis C virus) (UniProt P26664). The settings on record: requires ATP and Mn2+ or Mg2+; 25 mM MOPS pH 6.5, 1 mM ATP, 0.5 mM MnCl2, 37 C.
The target is the same in data set [3]. Kind of data set: filter. To be noted: 25 mM MOPS pH 7.0, 2 mM DTT, 30 C; 0.445 RNA per helicase molecule; koff 1.52e-2 min-1.
The target of data set [4] is HCV NS3 full-length (wild type) (Hepatitis C virus) (UniProt P26664). Kind of data set: filter. To be noted: reference.
For data set [5], the target named is HCV NS3 helicase domain (wild type) (Hepatitis C virus) (UniProt P26664). The settings on record: poly(U)-stimulated ATPase; 50 mM MOPS pH 7.0, 0.5 mM MgCl2, 37 C.

As to “3'-tailed 98-nt RNA / 34-nt DNA hybrid (pSP65 BsrBI transcript; pSP64 release strand)”, the activity (% of WT unwinding) in data set [1] (reference) and in data set [2] was 100 in each case.
In the case of “34-nt ssRNA (SP6 transcript of BamHI-digested pSP64)”, in data set [3], the Kd is 5.18 nM. Also, in data set [4], the binding signal is 100 % of WT.
For poly(U), the activity (% of basal WT ATPase) in data set [1] (poly(U)-stimulated ATPase) was 581; in data set [5] it was 823.
